The values that follow come from paper PMC10240976 (2022).

The target in the experiment is LC3B K65W. Briefly: ITC.

Molecule LQFEIDDEMEPLYNQAKQMRYGDY [LIR[Sp] peptide] came in with a Kd of 22.4 µM.

The term Kd denotes the concentration at which binding is half-saturated. A lower Kd goes with a tighter complex.
